Measured values reported in PMC3045617.
pKd: −log10 of the molar value.

Tests used:
Assay in all cases: EMSA
[1] = system: GlrR-His10 (E. coli) (Escherichia coli)
[2] = system: GlrR-His10 (Y. pseudotuberculosis) (Yersinia pseudotuberculosis)
[3] = target: T1, GlrR-His10 (E. coli) (Escherichia coli) (UniProt P0AFU4)
T1 sequence: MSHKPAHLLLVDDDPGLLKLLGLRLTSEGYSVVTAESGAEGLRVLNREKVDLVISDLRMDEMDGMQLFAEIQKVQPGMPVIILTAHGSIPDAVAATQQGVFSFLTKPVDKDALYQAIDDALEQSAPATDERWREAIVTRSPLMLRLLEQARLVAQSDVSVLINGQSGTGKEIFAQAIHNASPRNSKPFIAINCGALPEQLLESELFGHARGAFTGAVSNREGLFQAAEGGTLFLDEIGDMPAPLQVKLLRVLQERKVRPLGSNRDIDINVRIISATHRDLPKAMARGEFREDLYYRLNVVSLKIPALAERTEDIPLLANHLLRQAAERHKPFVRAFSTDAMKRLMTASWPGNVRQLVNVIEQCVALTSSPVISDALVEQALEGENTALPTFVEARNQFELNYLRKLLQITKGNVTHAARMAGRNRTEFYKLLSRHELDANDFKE

[4] = system: GlrR-His10 (Y. pseudotuberculosis) (Yersinia pseudotuberculosis), ORF:f09f451a
IHF = IHF (UniProt P0A6X7+P0A6Y1)
UniProt P0A6X7, sequence (P0A6X7 2-99, chain 1 of 2): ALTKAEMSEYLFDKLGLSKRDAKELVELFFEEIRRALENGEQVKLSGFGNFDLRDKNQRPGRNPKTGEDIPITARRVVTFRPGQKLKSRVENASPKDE
UniProt P0A6X7, sequence (P0A6Y1 whole entry, chain 2 of 2): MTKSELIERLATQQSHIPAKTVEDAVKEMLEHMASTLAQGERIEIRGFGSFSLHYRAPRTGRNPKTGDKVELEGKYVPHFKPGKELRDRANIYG

| Substance | pKd [1] | pKd [3] | also measured |
| --- | --- | --- | --- |
| Y. pseudotuberculosis glmZ promoter (-303 to +22) | 6.43 | – | binding signal (fold higher protein than E. coli GlrR) [2]: 4 |
| S. typhimurium glmY promoter (-242 to +22) | 6.64 | – | – |
| E. coli glmY promoter (-238 to +22) | 6.44 | – | – |
| Y. pseudotuberculosis glmY promoter (-257 to +22) | 6.54 | – | – |
| S. typhimurium glmZ promoter (-242 to +22) | 6.43 | – | – |
| ATTAATGCAGCTGGCACGACAGGTTTCCCGACTGGAAAGCGGGCAGTGAGCGCAACGCAATTAATGTGAGTTAGCTCACTCATTAGGCACCCCAGGCTTTACACTTTATGCTTCCGGCTCGTATGTTGTGTGGAATTGTGAGCGGATAACAATTTCACACAGGAAACAGCTATGACCATGATTACGGATTCACTGGCCGT (double strand) [lacZ promoter 200 bp control] | – | – | binding [3]: no binding |
| GCTCTAGAATAAGTCGGTGAATGAGCCACTGGTTACTATTATGCAGTAACTGTGCCAATAAAGAAAATAGTTTGGTAACGTACTGATTATACGTTGCTTTGAGGGGTTTATGTCTCCTCCGCTGTTTGAATGTAAATCAGCCACTGTGTCGCTAAAAAGAGACAACTTAAGATAAACTTATTAGATAATATTAAAATCAATGAGTTAAGTGTCGCCAGAAAGCGACACGGCAAACCACCCATTGTCGTGATTTACAGACACAAAAAAGGTCGACGCGTGC (double strand) [E. coli glmY promoter (-238 to +22)] | – | 6.44 | binding [3]: binds; binding [4]: binds; binding (IHF): binds |
| GCACGCGTCGACGTGTTGCCATTATGATTTGTTGGCGATATCCCAGGCTTCATTTGTCGCTATTCGGTGACGAGTAATCTATTGATTTATAATCACTTTGTAAAAAGCATCCTGTTCTGTCTCCACCGGGCGACACGCTAAAACCTCGCCAGCGGCGGGGGGATGACAATCGCGTGAATTCTCTACGTTTTTTTAATGCCTGCGCCTGTTTTTTAGCGGTGCAAAGATGGCACGTTATGTGCAATAATGTACGGGTAGATGCTCATTCCATCTCTTATCTAGAGACG (double strand) [S. typhimurium glmZ promoter (-242 to +22)] | – | 6.43 | – |
| CGTCTCTAGACATAAGAAGGTGAATGAGCCACTGGTTACCATTATGCAGTAATTGTGCCAACATTCAAAAGAATTTGTTAACATAATGATAGATATGAAAAATATCGTTATTCATGCTAAAAATGGCTCTGTCTGTTTTTTGCCCTTTCTGTCGCCAATCAGCAACACCTGCAACACCTAAAAATAAAACAATTTAAAATCAAATAGTTAAATGTCTCTTTTTGGCGACAACCTATCCCCCACTCATGTCGGGATTTCCCGACACTTTAATCTTGGTCGACGCGTGC (double strand) [S. typhimurium glmY promoter (-242 to +22)] | – | 6.64 | – |
